Results: publication PMC5389471 (Nucleic Acids Research, 2016)
Values belong to the molecule of their own block, whether it stands above or below them.

Tests used:
[1] = molecular target: AibR, TetR-like transcriptional regulator of the AIB-operon (Myxococcus xanthus); assay: SEC
[2] = molecular target: AibR, TetR-like transcriptional regulator of the AIB-operon (Myxococcus xanthus); assay: crystal structure
AibR [3] = molecular target: T1, AibR (Myxococcus xanthus, UniProt Q1D4I5); assay: MST Kd with Cy5-labelled AibR; type: binding
T1 sequence (Q1D4I5 1-228): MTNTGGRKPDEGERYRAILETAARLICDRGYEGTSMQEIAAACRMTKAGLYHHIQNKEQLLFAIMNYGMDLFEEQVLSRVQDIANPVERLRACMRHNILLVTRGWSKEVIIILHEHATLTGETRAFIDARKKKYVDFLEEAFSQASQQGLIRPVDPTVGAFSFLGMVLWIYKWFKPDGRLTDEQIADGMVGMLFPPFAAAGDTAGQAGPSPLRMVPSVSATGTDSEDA

AibR [4] = molecular target: T2, AibR (UniProt Q1D4I5 1-228); assay: EMSA
T2 sequence: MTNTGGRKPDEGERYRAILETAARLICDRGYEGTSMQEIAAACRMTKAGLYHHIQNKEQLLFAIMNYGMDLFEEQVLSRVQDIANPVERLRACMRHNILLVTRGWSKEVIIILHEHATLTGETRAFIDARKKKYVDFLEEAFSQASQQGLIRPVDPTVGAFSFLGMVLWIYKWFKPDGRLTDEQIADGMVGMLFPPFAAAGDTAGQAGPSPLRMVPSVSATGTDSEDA

AibR [5] = molecular target: T2, AibR; assay: MST
AibR [6] = molecular target: T2, AibR; assay: crystal structure

stoichiometry N [1]: 2 | stoichiometry N [2]: 2
Molecule: AibR, TetR-like transcriptional regulator of the AIB-operon (natural protein)

Kd (AibR [3]): 5800 ± 1510 nM
Molecule: CC(C)=CC(=O)SCCNC(=O)CCNC(=O)[C@H](O)C(C)(C)COP(=O)(O)OP(=O)(O)OC[C@H]1O[C@@H](n2cnc3c(N)ncnc32)[C@H](O)[C@@H]1OP(=O)(O)O [3,3-dimethylacrylyl coenzyme A]

B1: aibR-Cy5 40 bp (dsDNA)
DNA 1: CCGCGTCGGGCGCTGCTACCTACCGGTCGGTAGGTCTCCA
DNA 2: TGGAGACCTACCGACCGGTAGGTAGCAGCGCCCGACGCGG
Kd (AibR [4]): 233 ± 20 nM

B2: aibR8 (dsDNA)
DNA 1: CCGCGTCGGGCGCTGCTACCTACCGGTCGGTAGGTCTCCA
DNA 2: TCATCCGCGCCATGGAGACCTACCGACCGGTAGGTAGCAGCGCCCGACGCGG
binding result (AibR [4]): binds

B3: Cy5 21 bp operator (dsDNA)
DNA 1: GCTACCTACCGGTCGGTAGGT
DNA 2: ACCTACCGACCGGTAGGTAGC
Kd (AibR [5]): 2300 ± 850 nM

B4: P3791 (dsDNA)
DNA 1: CCCCTGCCCAACCTACCGGTCGGACGGTTCCTAGCGGG
DNA 2: TCATCCGCGCCACCCGCTAGGAACCGTCCGACCGGTAGGTTGGGCAGGGG
binding result (AibR [4]): binds

B5: 16-bp palindrome (nt 2-17, G9A) (dsDNA)
DNA 1: CCTACCGATCGGTAGG
DNA 2: CCTACCGATCGGTAGG
binding result (AibR [6]): binds

B6: 3aibR12 (G12T) (dsDNA)
DNA 1: CGCTGCTACCTACCGGTCTGTAGGTCTCCA
DNA 2: TCATCCGCGCCATGGAGACCTACAGACCGGTAGGTAGCAGCG
binding result (AibR [4]): no binding
